Results on 3 molecules are retold here after patent US8148141 (HIPEP LABORATORIES, dated 2012).

Ends that are not written are not given here. carboxyfluorescein = carboxyfluorescein (fluorescent group); ethyldansyl = not defined here

In test [1] the target is T1, calmodulin (Homo sapiens (Human), UniProt P0DP23 2-149). Description: fluorescence of immobilized labeled peptide on glass chip, ex 490 nm / em 520 nm, calmodulin solution, 25 C, 5 min.
Test [2] concerns the target T1, calmodulin. Kind of test: fluorescence of immobilized labeled peptide on glass chip, ex 340 nm / em 480 nm, plate reader, 1.0 uM calmodulin, 25 C, 5 min.

B1: Lys(Rf3)-Leu-Lys-Lys-Leu-Leu-Lys-Leu-Leu-Lys-Lys-Leu-Leu-Lys-Leu-Cys-NH2 (peptide)
peptide: K(carboxyfluorescein)LKKLLKLLKKLLKLC-NH2
notes: also called peptide containing carboxyfluorescein
Consider B1, for which the “increase of the fluorescence intensity (fold)” value (from here on “increase … (fold)”) in the test with calmodulin [1] was roughly 10 times.

B2: Glu(Rf1)-Leu-Lys-Lys-Leu-Leu-Lys-Leu-Leu-Lys-Lys-Leu-Leu-Lys-Leu-Lys(Rf2)-Cys-NH2 (peptide)
peptide: E(ethyldansyl)LKKLLKLLKKLLKLK(dabsyl)C-NH2
modifications: reading uncertain; also: printed as Glu(Rf1)-Leu-Lys-Lys-Leu-Leu-Lys-Leu-Leu-Lys-Lys-Leu-Leu-Lys-Leu-Lys(Rf2)-Cys-NH2
notes: Chemically synthesized designed peptide; Immobilized on a glass substrate in the assay; also called alpha-helix peptide with ethyldansyl-dabsyl labels, C-terminal Cys anchor
B2: the “increase … (fold)” value in the test with calmodulin [2] is roughly 5 times.

B3: Cys-Glu(Rf1)-Leu-Lys-Lys-Leu-Leu-Lys-Leu-Leu-Lys-Lys-Leu-Leu-Lys-Leu-Lys(Rf2)-NH2 (peptide)
peptide: CE(ethyldansyl)LKKLLKLLKKLLKLK(dabsyl)-NH2
modifications: reading uncertain; also: printed as Cys-Glu(Rf1)-Leu-Lys-Lys-Leu-Leu-Lys-Leu-Leu-Lys-Lys-Leu-Leu-Lys-Leu-Lys(Rf2)-NH2
notes: Chemically synthesized designed peptide; Immobilized on a glass substrate in the assay; also called alpha-helix peptide with ethyldansyl-dabsyl labels, N-terminal Cys anchor
With B3, in the test with calmodulin [2], the “increase … (fold)” value is roughly 5 times.
